Measurements taken from PMC7904734, “ORP/Osh mediate cross-talk between ER-plasma membrane contact site components and plasma membrane SNAREs” (Cellular and Molecular Life Sciences: CMLS, 2020).

Tests used:
[1] = target: YFP(C)·Sec22p (S. cerevisiae) (UniProt P22214); experiment: split reporter (BiFC, NanoBiT); BiFC in living Δosh1-3 yeast cells (Y36), compared with wt (Y2)
[2] = target: T1, His·Osh3p (S. cerevisiae, UniProt P38713 1-996); experiment: pull-down; 2 μM GST·Sec9p(421–651) or GST on Glutathione-Agarose, equal molar His·Osh3p, 100 µl PBS + 0.1% Triton X-100, 1 h, room temperature; SDS-PAGE, Coomassie; conditions: both partners purified
T1 construct: Osh3p, PCR amplified and cloned into vector 1509; also called His6-tagged Osh3p; source: bacterial production, purified (Ni-NTA agarose)
T1 sequence (looked up): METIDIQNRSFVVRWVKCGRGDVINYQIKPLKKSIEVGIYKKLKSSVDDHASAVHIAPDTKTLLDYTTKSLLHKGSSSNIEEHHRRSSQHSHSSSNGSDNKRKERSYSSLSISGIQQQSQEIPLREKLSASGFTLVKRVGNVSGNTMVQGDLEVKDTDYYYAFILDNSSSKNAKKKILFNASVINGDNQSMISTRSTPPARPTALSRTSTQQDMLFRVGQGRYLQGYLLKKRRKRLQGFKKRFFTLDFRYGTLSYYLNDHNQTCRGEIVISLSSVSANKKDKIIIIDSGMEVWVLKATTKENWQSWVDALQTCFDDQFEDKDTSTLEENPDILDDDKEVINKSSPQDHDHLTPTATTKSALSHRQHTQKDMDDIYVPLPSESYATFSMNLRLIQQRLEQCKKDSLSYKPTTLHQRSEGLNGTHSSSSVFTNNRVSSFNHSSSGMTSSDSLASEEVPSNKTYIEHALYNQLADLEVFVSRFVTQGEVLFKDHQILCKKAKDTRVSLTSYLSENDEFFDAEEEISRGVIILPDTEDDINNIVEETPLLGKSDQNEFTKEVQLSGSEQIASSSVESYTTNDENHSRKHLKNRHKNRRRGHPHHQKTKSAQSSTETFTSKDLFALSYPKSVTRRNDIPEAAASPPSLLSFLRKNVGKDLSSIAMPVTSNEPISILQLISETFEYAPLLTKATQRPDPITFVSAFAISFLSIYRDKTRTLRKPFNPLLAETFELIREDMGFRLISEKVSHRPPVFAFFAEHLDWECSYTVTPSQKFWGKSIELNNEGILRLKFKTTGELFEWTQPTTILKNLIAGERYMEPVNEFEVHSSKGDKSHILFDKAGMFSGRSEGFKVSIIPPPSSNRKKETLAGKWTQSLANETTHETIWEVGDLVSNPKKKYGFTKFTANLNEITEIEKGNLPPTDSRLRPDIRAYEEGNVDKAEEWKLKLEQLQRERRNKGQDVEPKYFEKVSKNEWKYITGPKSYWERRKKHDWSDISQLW

[3] = target: T2, Venus(C)·VAPA (lentiviral) (human), Q9P0L0; experiment: split reporter (BiFC, NanoBiT); BiFC of Venus(N)·VAPA and Venus(C)·VAPA in wt mouse hippocampal neurons, lentiviral; scrambled or ORP2 shRNA; infected DIV 3 and fixed DIV 7, or infected DIV 7 and fixed DIV 14; conditions: remark: other sources report otherwise
T2 chain: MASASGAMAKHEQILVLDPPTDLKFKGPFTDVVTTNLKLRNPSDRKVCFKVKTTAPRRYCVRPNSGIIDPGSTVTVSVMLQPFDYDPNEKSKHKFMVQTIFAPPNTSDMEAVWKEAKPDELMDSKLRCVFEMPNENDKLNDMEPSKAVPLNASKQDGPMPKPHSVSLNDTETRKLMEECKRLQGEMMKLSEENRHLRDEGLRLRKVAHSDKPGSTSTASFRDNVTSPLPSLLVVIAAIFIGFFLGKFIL

YFP(C)·Sec22p (S. cerevisiae), sequence (P22214 whole entry): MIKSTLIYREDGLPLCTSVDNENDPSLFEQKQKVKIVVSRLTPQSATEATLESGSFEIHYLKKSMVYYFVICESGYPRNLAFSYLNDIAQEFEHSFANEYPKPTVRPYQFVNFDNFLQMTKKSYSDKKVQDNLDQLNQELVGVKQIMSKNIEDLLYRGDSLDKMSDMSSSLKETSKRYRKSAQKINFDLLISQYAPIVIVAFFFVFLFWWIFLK

With “YFP(N)·Sso1p (from UniProt P32867 1-290) (natural protein)” the reduction of the BiFC signal in the Δosh1-3 strain against wt [1] was 19%.

B1: GST·Sec9p(421–651) (domain or fragment, S. cerevisiae, UniProt P40357 421-651, looked up)
chain: EEDEAVDEIKQEIKFTKQSSVASTRNTLKMAQDAERAGMNTLGMLGHQSEQLNNVEGNLDLMKVQNKVADEKVAELKKLNRSILAVHVSNPFNSKRRRREREEQLKNRKIEEKLMREQTSQQLSQSTQRIEGAMNANNNISEVRERYQRKNVLEKAKRYQFENDEEDDEMELEIDRNLDQIQQVSNRLKKMALTTGKELDSQQKRLNNIEESTDDLDINLHMNTNRLAGIR
notes: cut out of 1530 and cloned into 977
B1: binds [2].

B2: Venus(N)·VAPA (lentiviral), Q9P0L0 1-249 (natural protein)
chain: T2 chain
B2 showed a fold reduction of VAPA-VAPA BiFC patches in ORP2 KD cells (transduced DIV 3, fixed DIV 7) [3] of 1.7 fold and a fold reduction of VAPA-VAPA BiFC patches in ORP2 KD cells (transduced DIV 7, fixed DIV 14) [3] of 2.3 fold.
